Data taken from the DeepSol protein solubility set.

Experiment: soluble on expression in E. coli; label from the status in PepcDB or PDB records
In the case of “MYHNNNYGYNNHRGGGGFRHNNYNNNNNNHHHHYNNLPRINETQVPQSKHTIFIRGLHGDISTEEIKEYIGEKVGKISFDFVKVAQDKSKIFVAVRFENRDEAKEFMETYSDREFMGCRCDLSWFRDIRRYCAYQRAKQVRSNSQRRRRRSDSQESSKRSASPPVRRGRSKSRSRSRSPSRSRSRSRSRSVSRSKSPASRNGRVSRHRSRSQNRSRSRSNTRSRSRSSGRSGSAHSRKSDDVDSFDDESFDEKSRVKDNEARQKRRRELSDDDRKDVRETQPKKSVKEELPQIPLPPKTEAAASPSPAPPTPKASKSASFIPPPTADDMELESPPHVSNNQYEYQQSNNTYNQIRTGASPVSVSYSVPMEVEATPKMIVRETPQPAQPPVQVNSYYTTTPIQQQQQQQQPIPPQLPTACAPVCKYLTKIFRVETRYHIPRGANFHVCVIRFSPPQPPPTTPQPAFVPRQIGRIEIVMPSSLPAPVVSAAAASASAAAHPVAMNGSAISGGSSMPDITMHPNTNKLFGHLKAFQSALLSTVKYEPPARKEEDEAGFSTLRLSSLATEDDSADEEKAMVRELKLAKLNDEQMMRFHIKKKQLESAFRNDCETYAVVTRALLAKDESLQFGLKMALLENMEDLYKKMMQRVDDQLDALLVMA”, the “soluble on expression in E. coli” value was “not soluble”. In the case of “MYKHILVPVDLNEQGFADKAVQLAVWHAKHSNAEIHLLNVLPGIHMSMVATYFPKDAAAQMKNDVRAQLKAFAEKHIAEEVVYKLHIAEGKPYATILDYAERLGADLIVMPSHKRSRIDKVMLGSVASKVVENSPINVMVVKPQG”, the “soluble on expression in E. coli” value was “not soluble”. With “MYKIGIDVGGTNTDAVILDHQLNLIHSVKVPTTDDIQTGIAGALNKVLAESAVDPTKVTHAMLGTTQCTNAIVERKKLAKVGVLRLGYPATASVLPYTAWPKDLVATLSETYALAHGGYEYDGQPLTALDEEELRGILASWRGEVEAIAVIGVFSSLKNDQELFVQALAKEVL” the “soluble on expression in E. coli” value was “not soluble”. For “MYKIVSDSACDLSKEYLEKHDVTIVPLSVSFDGETYYRDGVDITRDECYQRMVDDPKLFPKTSLPSVESYADVFRSFVEQGFPVVCFTITTLFSGSYNSAINAKSLVLEDYPDANICVIDSKQNTVTQALLIDQFVRMLEDGLSFEQAMSKLDALMASARIFFTVGSLDYLKMGGRIGKVATAATGKLGVKPVIIMKDGDIGLGGIGRNRNKLKNSVLQVAKKYLDENNKDNFIVSVGYGYDKEEGFEFMKEVESTLDVKLDSETNVAIGIVSAVHTGPYPIGLGVIRKYETL”, the “soluble on expression in E. coli” value was “soluble”. For “MYLINQNGWIEVICGSMFSGKSEELIRRVRRTQFAKQHAIVFKPCIDNRYSEEDVVSHNGLKVKAVPVSASKDIFEHITEELDVIAIDEVQFFDGDIVEVVQVLANRGYRVIVAGLDQDFRGLPFGQVPQLMAIAEHVTKLQAVCSVCGSPASRTQRLIDGEPAAFDDPIILVGASESYEPRCRHCHAVPANKDK”, the “soluble on expression in E. coli” value was “not soluble”. With “MYLTKEEEQILNGEAGETLRQAIQILVALGDIYGADRLIPIKSAQIAGVSYKTIGDAGLEWISDLEGQVKVPAILNPAGMDLEDWERLRISPEFAEKQKEIVQAYKKLGIRCECTCTPYTLEGFSVSYGDHLAWSESSAISYANSVIGARTNREGGPSALSAALLGKTANYGFHLDKNRVPEVSVSVECSLKESDYGALGYVAGKLIGNRVPIFQLRSKPEKDELKSLGAAMAASGAVALYHVKGVTPEACRMDFEEPEEKIIIERSQLDEVYESKGKEPELITIGCPHCSAAELKKAAELLKGKTVSKETWIFTSRELAERYPEYIRTIEESGAKVVCDTCMVVSPATNSYSCVMVNSGKAFAYVPGMCGAQSVYGNMEACINKATGGKERKAGDSHLEHHHHHH” the “soluble on expression in E. coli” value was “not soluble”. With “MYMAQPGHIDHIKQINAGRVYKLIDQKGPISRIDLSKESELAPASITKITRELIDAHLIHETTVQEAISRGRPAVGLQTNNLGWQFLSMRLGRGYLTIALHELGGEVLIDTKIDIHEIDQDDVLARLLFEIEEFFQTYAAQLDRVTSIAITLPGLVNSEQGIVLQMPHYNVKNLALGPEIYKATGLPVFVANDTRAWALAEKLFGHSQDVDNSVLISIHHGLGAGIVLDGRVLQGRHGNIGELGHIQIDPQGKRCHCGNYGCLETVASSQAIRDQVTARIQAGEPSCLATVEEISIEDICAAAADGDPLAVDVIQQLGRYLGAAIAIVINLFNPEKILIGGVINQAKSILYPSIEQCIREQSLPVYHQDLKLVESRFYKQATMPGAALIKQALYDGLLLMKVVEG” the “soluble on expression in E. coli” value was “soluble”. With “MYNVEIRRPNSDDLEELHSFFRIVITNTFKDEGLSQLSDDIENEINTKKQYLKNDFDSNGEKRYFLLAIDTNNDKIIGTIEVGPASTLINSCTGGVLKDLYEIGTVFILPEYQKKGIGSFLLHTMFLTLLSRGITEYCLDSGYKKAQSIWTKKFGEPSYVLKDYWGESSDHMIWKKSLYDTPIIFELMAGDPLEHHHHHH” the “soluble on expression in E. coli” value was “soluble”. For “MYPSDFASQLNVLSLKEMKEAIHHLLDIRDENTWMLFGTLPIYPCLNDEYDQHLLQRLRKSKNVTMRNDPDGRSRLNVNVFTGDVIVTDFGDENGTISNIQKDKLTDVFNQWLNTDLAQSLNCHCAEYQCLGPNVLVKNMYYPNTDFKKKEQIMHQHQIFS”, the “soluble on expression in E. coli” value was “not soluble”. In the case of “MYQDLIRNELNEAAETLANFLKDDANIHAIQRAAVLLADSFKAGGKVLSCGNGGSHCDAMHFAEELTGRYRENRPGYPAIAISDVSHISCVGNDFGFNDIFSRYVEAVGREGDVLLGISTSGNSANVIKAIAAAREKGMKVITLTGKDGGKMAGTADIEIRVPHFGYADRIQEIHIKVIHILIQLIEKEMVK”, the “soluble on expression in E. coli” value was “soluble”. With “MYQKFKGGDLMIHGGDIYTEGVFKGRELLDYSSNINPLGIPKSFLNNIDEGIKNLGVYPDVNYRRLNKSIENYLKLKDIGIVLGNGASEIIELSISLFEKILIIVPSYAEYEINAKKHGVSVVFSYLDENMCIDYEDIISKIDDVDSVIIGNPNNPNGGLINKEKFIHVLKLAEEKKKTIIIDEAFIEFTGDPSSSFVGEIKNYSCLFIIRAMTKFFAMPGIRFGYGITNNKEIAAKIKAKQNPWNINCFAEMAAINCLKDTNYIEESLLWIKKERKRFIEELNKIGFIKRVFSPHANFVLCRLENISGEKLYDSLLKEDIVIRRCCNFIGLDDSFVRFAIKDEKKNTKFLRALKGVENNL” the “soluble on expression in E. coli” value was “soluble”. With “MYRAGAVLLRGATRTRLLAAASAHQSFATFSQRNQSILMMKSMELAGNSGERRFYSTHDDPIAVDDSLELYKDLGGMSPIQVPADMPNVPMLAINRYPLFPGFIKKVDIVKDDNLKALIRRQLSLKQPYAGVFVKRDDENKEETITSLSEVYPTGSFVQIIEVRDQGSVLELVLSAHRRIRALEPIDEITPKNETPLNGRRARGKRAASATSPLTPPPSPPPLAPSVASVAPEISATEEKEEKTTPPSATGEKQKKGIIMVRTENVVAEPVPKNNETKATMMAIVQTIRDVVQFNQLFGQQINLLLHPSQNVIDNPVYLCDLVATLVQSAETKDLQEMMDEIDVSKRLKIALLLIQKEKAVAKLKYDINKDVEKKVQDHHRKYLLNEQLKVIKKELGIEKDEKTTIIEKIDERIKTLAVPEYALKVINEEKTKLQFLDPHSSEFSVTRNYLEWLTSVPWGLTSPENRRLSVAKKALDEGHYGMKDVKERIMEFIAVNLLRKSIGGKILCFHGPPGVGKTSIAKSIATALNREYFRFSVGGMTDVAEIKGHRRTYVGAMPGKMIQCMKKVKTENPLVLIDEVDKIGGAGFHGDPASALLELLDPEQNANFNDHFLDVPVDLSRVLFICTANEISKIPGPLRDRMEMIDVSGYLAEEKVEIAHQHLIPQLRKDTSLATEQLKIEDSALEELIKHYCRESGVRNLQQHIERIFRKAALQIAEQQNEDEEPAEKATTAITENSEAEPITSTSSADCLKSSAEQIVVCTENLQKFVGRPKFTSDRMYEVTPPGVIMGLAWTAMGGSALYIETVLKRPVDLTNDKDGSIETTGNLGDVMKESVRTALTVAKGILAREQPDNKFFDKAHIHIHVPEGATPKDGPSAGVTLVSSLLSLALDRPVVQDMAMTGEISLTGKVLPVGGIREKVIAARRVGAKRVFLPNENRRDFDDLPEFMKSELDIRFVSHYDELYEHLFQ” the “soluble on expression in E. coli” value was “not soluble”. With “MYRGEPGTRAHQQEEHVVDSSPLEPSSSLEDTRVWGHVGVAAAPRLLAQALPKLRCKLPKPQAPLAGHEAQQPRGGLILPLALASELMESSTVQWLSYKQPQVVPVVPQLPRVLWQVQPLEKPGSQSFRNNQPSILLKTRLRFSITRISLFNYHR” the “soluble on expression in E. coli” value was “soluble”. With “MYRKEWQDPDRIVDQLPISPGFDIVDLGCGPGFFTLPLASRTDGKVYAVDASDEMIEILKERIDGHSNIIPVKARAENIPIPDGTVDLVFIANAFHDFDDRDAVLGEIYRILRDGGYLVDIDWKKDETTHGPPVDIRIDRKDALLLISSHNFDIVKEIEAGAHHYGLLFRKN” the “soluble on expression in E. coli” value was “not soluble”. With “MYSANRSHRAETRNRSKDELRKVINSLEKVRRWEKKLVLIKDTNIRIYKWVPVSAQNIMAPPKIKEVKEVDEESNQVPSAENSQDSTSVTQPPPQFDINEDSNFSTGDHFDSDSNQTFEPQNYQGGATGSTDFSSMRDAEMTSKQP” the “soluble on expression in E. coli” value was “not soluble”. In the case of “MYSEERRRQIASLTAVEGRVNVTELAARFDVTAETIRRDLAVLDREGVVHRVHGGAVANQTFQTAEFSLDTRSRSASGAKNSIAHAALSYLPEAQGGLFLDAGTTTAALAELLAAQPFAKHWSIVTNSLSIALTLANSGLDEIQLLGGSVRAITQAVVGDTALRTLALMRADVAFIGTNALTIDHGLSTADSQEAAIKSAMITNAHKVVVLCDSTKMGTDYLVSFGSISDIDVIITDANAPESFVKALRDRDVEVIIA”, the “soluble on expression in E. coli” value was “not soluble”. With “MYVGYLGPSGSFTHNAALKAFPEASLVSLGTITEVIKSYEEGRVDYAVIPVENSIEGSVHESLDYLFHQADIRAVAEIVQPIKQQLMASKHHAKIEKIFSHPQAIAQGKKYIKDHFPHAKIETTASTAFAARYVADNPDQPYAAIAPHAAAKEYGLEILAKDIQEIEKNYTRFWLLGSTVP” the “soluble on expression in E. coli” value was “not soluble”. For “MYYDVLKTFIAVVEEKNFTKAAEKLMISQPSVSLHIKNLEKEFQTALLNRSPKHFTTTPTGDILYQRAKQMVFLYEQAKAEIYAHHHYVKGELKIAASFTIGEYILPPLLAQLQKLYPELNLDVMIGNTEEVSERVRMLQADIGLIEGHTNENELEIEPFMEDEMCIAAPNQHPLAGRKEISISDLQNEAWVTREKGSGTREYLDHVLSSNGLRPKSMFTISSNQGVKEAVINGMGLSVLSRSVLRKDLIHREISILHINNFSLKRKLSYIHSPLMENTKNKEIFITMLKSNYQSQLLK”, the “soluble on expression in E. coli” value was “soluble”. For “NALHVINMVGTRHATPYGQDICTRFLADLSVLCPNALIVSGLAYGIDIHAHRAALQNHFKTIGVLAHGLDRIYPAEHRKTAVSMLEQGGLLTEFTSGTNPDRQNFVKRNRIVAGMSDATVVIESAAKGGALITAELAESYHRDCFAFPGRCNDEYSIGCNNLIRKNQAVLITSAEDLVKAMGWESSPKTEKT”, the “soluble on expression in E. coli” value was “not soluble”. With “NDAFRWKTQFNFSTNKNKIIKLHPDLKTFVYGDESFSSSYSMRLVEGGSFGDIYGKAFERDENGKVAFTTDKDGDKIPNVIGGGNTEKVGNCNPDFMLGWSNTFTYKGFSLYFLIDGRFGGDVLSQTQAELDQRGVSLNSGKARDAGYINIDGTQVKPRKFYTAVSGRDGCTEYYMYDATNIRLRELSLGYSLPQSWLAKAGGAFKDVQLSFVARNLFFISKKAPFDPDAVLSTGNDNQGIDVFGMPTTRSLGFNIKFTF” the “soluble on expression in E. coli” value was “not soluble”. With “NGFQKEMRTRILGMVPHATISAAQPLDDWQTVANAALRHREVVGAAPFAELQGMLSYKGNMLPVLVNGIDPQEERKVSIVGEHIVQGSLDDLKPGEFGIVLGEITARRFHVNVGDKLTLIVPEATSAPGGITPRMQRFTIVALFKVGAELDNSLALIDIADAGQLLRLQPGQVPSVRLELKDLYQSPQVAAKVVKELGQGFRSSDWTRTQGSLFNAMKMEKT” the “soluble on expression in E. coli” value was “not soluble”. In the case of “NGGIPHDNLVLIRMKPDENGRFGFNVKGGYDQKMPVIVSRVAPGTPADLCVPRLNEGDQVVLINGRDIAEHTHDQVVLFIKASCERHSGELMLLVRPNAVYDVVEE”, the “soluble on expression in E. coli” value was “soluble”.
